For one data set, the system named is MDA-MB-231 tumor cells. In words: MDA-MB-231 murine xenograft efficacy model. It counts as in vivo, BALB/c Nude mice. On the procedure: Murine xenograft experiments were conducted at WuXi AppTec and/or Charles River Laboratories and the care and use of animals was conducted in accordance with the regulations of the Association for Assessment and Accreditation of Laboratory Animal Care (AAALAC). MDA-MB-231 tumor cells (ATCC, Manassas, VA, cat #HTB-26) were grown and maintained in L15 medium supplemented with 10% heat inactivated fetal bovine serum, 1% Antibiotic-Antimycotic, and L-glutamine (2 mM) at 37° C. in an atmosphere in 5% CO2, 95% air. BALB/c Nude, female, 6-8 weeks, weighing approximately 18-22 g were purchased from Vital River Laboratory Animal Technology Co., LTD. Mice were inoculated subcutaneously at the right flank with MDA-MB-231 tumor cells (e.g., triple negative breast cancer cells) (10×10^6) in 0.2 mL of PBS with Matrigel (1:1) for tumor development. Animals were randomized and treatment was started when the average tumor volume reached approximately 150-200 mm^3 for the efficacy study. Dosing volume was adjusted based on body weight and was administered at 10 ml/Kg. […] Free MMAE payload was also tested, and similarly dissolved in 25 mM Histidine 10% sucrose pH 7 and one or more of the following doses, 0.6, 0.06 mg/kg, were administered to the mice i.v. at a QW×4 schedule. Tumor sizes were measured twice weekly in two dimensions using a caliper, and the volume in mm^3 calculated using the formula: V=0.5 a×b^2, where a and b are the long and short diameters of the tumor, respectively. TGI was calculated for each group using the formula: TGI (%)=[1−(Ti−T0)/(Vi−V0)]×100; where Ti is the average tumor volume of a treatment group on a given day, T0 is the average tumor volume of the treatment group on the first day of treatment, Vi is the average tumor volume of the vehicle control group on the same day with Ti, and V0 is the average tumor volume of the vehicle group on the first day of treatment.

The nature of data set [1]: Maximum tolerated dose (MTD) study. In kind it is in vivo, BALB/c Nude mice. The note with it: for body weight loss: after 48 hrs. On the procedure:
BALB/c Nude mice, female, 6-8 weeks, weighing approximately 18-22 g were purchased from the Shanghai SLAC Laboratory Animal Co., LTD. MTD studies were conducted at WuXi AppTec and the care and use of animals was conducted in accordance with the regulations of the Association for Assessment and Accreditation of Laboratory Animal Care (AAALAC). Two MTD studies were performed (a) a low dose study with doses ranging from 0.1, 0.5, 1 and 3 mg/kg and (b) a high dose study with doses ranging from 3, 5, 10 mg/kg. Dosing volume was determined based on body weight (10 ul/g) and PDCs were dissolved in 25 mM Histidine 10% sucrose pH 7 and administered i.v. at a single dose at day 0. The treatment and observation were conducted up to 7 days and MTD was defined by ≥20% body weight loss. Body weights were measured daily, death and observed clinical signs were recorded.
Doses of 3, 5, and 10 mg/kg were administered. MTD was defined by ≥20% body weight loss and body weight measured daily.

For the compound `CC[C@H](C)[C@@H]([C@@H](CC(=O)N1CCC[C@H]1[C@H](OC)[C@@H](C)C(=O)N[C@H](C)[C@@H](O)c1ccccc1)OC)N(C)C(=O)[C@@H](NC(=O)[C@H](C(C)C)N(C)C(=O)OCc1ccc(NC(=O)[C@H](CCCNC(N)=O)NC(=O)[C@@H](NC(=O)CCCC(=O)NCCC(=O)N(C)CC(=O)N(C)CC(=O)N(C)CC(=O)N(C)CC(=O)N[C@@H](C)C(=O)N2CCC[C@H]2C(=O)N[C@@H](CCCNC(=N)N)C(=O)N[C@@H](Cc2c[nH]c3ccccc23)C(=O)N[C@@H](CC(=O)O)C(=O)N[C@@H](C)C(=O)N2CCC[C@H]2C(=O)N[C@@H](CC(C)C)C(=O)N[C@@H](CCCNC(=N)N)C(=O)N[C@@H](CC(=O)O)C(=O)N2CCC[C@H]2C(=O)N[C@@H](C)C(=O)N[C@@H](CC(C)C)C(=O)N[C@@H](CCCNC(=N)N)C(=O)N[C@@H](CCC(N)=O)C(=O)N[C@@H](CC(C)C)C(=O)N[C@@H](CC(C)C)C(=O)O)C(C)C)cc1)C(C)C` [PRGN_WT_PDC], the “tumor growth inhibited relative to vehicle” value in the data set with MDA-MB-231 tumor cells (3 mg/kg i.v. QW×4, day 22 (Example 8)) turned out to be 96%. In addition, the “tumor growth inhibition” value in the data set on MDA-MB-231 tumor cells (3, 1, 0.3 mg/kg i.v. QW x 4) is on record as “dose-dependent tumor growth inhibition”. In the data set on MDA-MB-231 tumor cells (Example 6, PDC 3, 1, 0.3 mg/kg, free MMAE at equivalency to 3 mg/kg PDC), the body weight variation entry was “mirrored that observed with vehicle treatment”. Besides, the body weight loss result is on record as “body weight loss tracked each other” in the data set with MDA-MB-231 tumor cells (Example 8, PDC 3 mg/kg, free MMAE 0.6 mg/kg, i.v. QW×4); around 15% in data set [1] (5 mg/kg single i.v. dose, recovered at Day 7); “greater than 20%” in data set [1] (10 mg/kg single i.v. dose). Besides, the “toxicity” value in data set [1] (10 mg/kg single i.v. dose) is reported as “significant toxicity”.

The record behind these values is patent US20240285785A1, “TARGETING SORTILIN” (priority 2022, published 2024).
